Data on eight sequences can be found in patent US20100003756.

Holding throughout (experiment): cell_activity
Data set [1] relates to ZFN SBS 17622 (BAK) (synthetic). The conditions noted are these: pair 17622/17623, MDCK cells, CEL-I/Surveyor.
The test system of data set [2] is ZFN SBS 17627 (BAK) (synthetic). Conditions: pair 17627/17626, MDCK cells, CEL-I/Surveyor.
Data set [3] relates to ZFN SBS 10077 (BAX) (synthetic). The conditions noted are these: BAX ZFNs of Table 1 (pair 10077/10079 inferred), Bak-deficient CHO, 21 of 79 clones Bsl I assay.
In data set [4] the test system is ZFN SBS 17623 (BAK) (synthetic). The conditions noted are these: pair 17622/17623, MDCK cells, CEL-I/Surveyor.
The test system of data set [5] is ZFN SBS 17626 (BAK) (synthetic). The conditions noted are these: pair 17627/17626, MDCK cells, CEL-I/Surveyor.
Data set [6] deals with ZFN SBS 10079 (BAX) (synthetic). Conditions: BAX ZFNs of Table 1 (pair 10077/10079 inferred), Bak-deficient CHO, 21 of 79 clones Bsl I assay.
For data set [7], the system named is ZFN SBS 17659 (BAX) (synthetic). The conditions noted are these: pair 17658/17659, MDCK cells, CEL-I/Surveyor.
In data set [8] the test system is ZFN SBS 17658 (BAX) (synthetic). Conditions: pair 17658/17659, MDCK cells, CEL-I/Surveyor.

For “AATGATGCAGCATGA (double strand) [BAK 17622 half-site]”, in data set [1], the activity (% alleles modified) was found to be 3.7. Sequence “AGGGGTGGCTGGGTAG (double strand) [BAK 17627 half-site]” came in with an activity (% alleles modified) in data set [2] of 1.1.

In turn, “CAGGGTGGCTGG (double strand) [BAX 10077 half-site]” had an activity (% clones modified) in data set [3] of 27.

“CCGGTGGATCGCGCAGAG (double strand) [BAK 17623 half-site]” gave an activity (% alleles modified) in data set [4] of 3.7.

For “GATCCACCGGGCAATGCA (double strand) [BAK 17626 half-site]”, the activity (% alleles modified) in data set [5] was 1.1. “GATCCAGACAAG (double strand) [BAX 10079 half-site]” showed an activity (% clones modified) in data set [6] of 27. In the case of “GGTTGGGTGAGGCCTG (double strand) [BAX 17659 half-site]”, the activity (% alleles modified) in data set [7] was 8. Take “GTCCTGGATCCAGCC (double strand) [BAX 17658 half-site]”: the activity (% alleles modified) in data set [8] was 8.
